For data set [1], the target named is T1, LMW-PTP (LMW-PTPB) (Homo sapiens, UniProt P24666, L14R/I17K, form not given).
T1 construct: gene ACP1; N-terminal 6xHis tag (pNIC28a-Bsa4, TEV-cleavable; cleavage described only for crystallisation); E. coli BL21-DE3
T1 sequence (P24666 1-158 isoform P24666-2 L14R/I17K): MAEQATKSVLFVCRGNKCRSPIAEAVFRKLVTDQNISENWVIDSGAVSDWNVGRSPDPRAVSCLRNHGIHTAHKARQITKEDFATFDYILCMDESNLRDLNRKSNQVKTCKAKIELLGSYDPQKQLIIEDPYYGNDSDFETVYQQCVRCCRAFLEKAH
As to the kind of experiment: malachite green phosphate release, Michaelis-Menten fit. The class given is biochemical. Conditions: pH 5.5, 37 °C, diC8 lipid. The text has this:
(§1) malachite green phosphate release, Michaelis-Menten fit on LMW-PTP (LMW-PTPB)

Data set [2] concerns the target T2, LMW-PTP (LMW-PTPB) (Homo sapiens, UniProt P24666, L14R/I17T, form not given).
T2 construct: gene ACP1; N-terminal 6xHis tag (pNIC28a-Bsa4, TEV-cleavable; cleavage described only for crystallisation); E. coli BL21-DE3
T2 sequence (P24666 1-158 isoform P24666-2 L14R/I17T): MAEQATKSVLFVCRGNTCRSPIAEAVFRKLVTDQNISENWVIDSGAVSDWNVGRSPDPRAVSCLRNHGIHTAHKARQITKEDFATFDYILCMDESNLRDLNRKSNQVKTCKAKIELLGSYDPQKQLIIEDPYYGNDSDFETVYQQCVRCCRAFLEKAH
The description is as above. The class given is biochemical. Conditions: pH 5.5, 37 °C, diC8 lipid.
Text: as §1

Data set [3] concerns the target T1, LMW-PTP (LMW-PTPB). As to the kind of experiment: pNPP assay, Michaelis-Menten fit. The class given is biochemical. The following applies: pH 5.5, 37 °C; read-out: RK / Km. The text has this: (§2) pNPP assay, Michaelis-Menten fit on LMW-PTP (LMW-PTPB)
Substrate in data set [4]: CCCCCCCC(=O)OC[C@H](COP(=O)(O)O[C@@H]1[C@H](O)[C@H](OP(=O)(O)O)[C@@H](O)[C@H](OP(=O)(O)O)[C@H]1O)OC(=O)CCCCCCC
As to the kind of experiment: malachite green phosphate release, Michaelis-Menten fit. The following applies: pH 7.5, 37 °C, diC8 lipid. The class given is biochemical, Homo sapiens. The text has this: malachite green phosphate release, Michaelis-Menten fit on MTMR2

Substrate in data set [5]: N[C@@H](Cc1ccc(OP(=O)(O)O)cc1)C(=O)O
Described as above. The class given is biochemical, Homo sapiens. Conditions: pH 5.5, 37 °C.
Text: as §1

Substrate in data set [6]: O=[N+]([O-])c1ccc(OP(=O)(O)O)cc1
As to the kind of experiment: pNPP assay, Michaelis-Menten fit. The class given is biochemical, Homo sapiens. Conditions: pH 5.5, 37 °C.
Text: as §2

Where two headings read alike, the source gives them in different places.

As a reminder, the kcat is the maximal rate divided by the concentration of active sites. What is called kcat/Km is the turnover number divided by the Michaelis constant.

For the molecule `CCCCCCCC(=O)OC[C@H](COP(=O)(O)O[C@H]1[C@H](O)[C@@H](O)[C@H](OP(=O)(O)O)[C@@H](O)[C@H]1O)OC(=O)CCCCCCC` [PI(4)P], the Km in data set [1] (read-out: RK / Km) was 30.7 ± 3.5 µM.

For the molecule `CCCCCCCC(=O)OC[C@H](COP(=O)(O)O[C@H]1[C@H](O)[C@@H](OP(=O)(O)O)[C@H](O)[C@@H](O)[C@H]1O)OC(=O)CCCCCCC` [PI(5)P], the Km in data set [1] (read-out: RK / Km) worked out at 35.9 ± 6.3 µM; in data set [1] (read-out: RKK / Km), 27.2 ± 7 µM; in data set [2] (read-out: RT / Km), 29.2 ± 3.7 µM; in data set [2] (read-out: RTK / Km), 26.2 ± 3.9 µM.

Regarding `CCCCCCCC(=O)OC[C@H](COP(=O)(O)O[C@@H]1[C@H](O)[C@H](OP(=O)(O)O)[C@@H](O)[C@H](O)[C@H]1O)OC(=O)CCCCCCC` [PI(3)P], in data set [1] (read-out: RK / Km), the Km was 22.9 ± 5 µM.

In the case of `O=[N+]([O-])c1ccc(OP(=O)(O)O)cc1` [pNPP], the Km in data set [3] stood at 1390 ± 105 µM.

B1: MTMR2 (Homo sapiens) (protein)
chain: MEKSSSCESLGSQPAAARPPSVDSLSSASTSHSENSVHTKSASVVSSDSISTSADNFSPDLRVLRESNKLAEMEEPPLLPGENIKDMAKDVTYICPFTGAVRGTLTVTNYRLYFKSMERDPPFVLDASLGVINRVEKIGGASSRGENSYGLETVCKDIRNLRFAHKPEGRTRRSIFENLMKYAFPVSNNLPLFAFEYKEVFPENGWKLYDPLLEYRRQGIPNESWRITKINERYELCDTYPALLVVPANIPDEELKRVASFRSRGRIPVLSWIHPESQATITRCSQPMVGVSGKRSKEDEKYLQAIMDSNAQSHKIFIFDARPSVNAVANKAKGGGYESEDAYQNAELVFLDIHNIHVMRESLRKLKEIVYPNIEETHWLSNLESTHWLEHIKLILAGALRIADKVESGKTSVVVHCSDGWDRTAQLTSLAMLMLDGYYRTIRGFEVLVEKEWLSFGHRFQLRVGHGDKNHADADRSPVFLQFIDCVWQMTRQFPTAFEFNEYFLITILDHLYSCLFGTFLCNSEQQRGKENLPKRTVSLWSYINSQLEDFTNPLYGSYSNHVLYPVASMRHLELWVGYYIRWNPRMKPQEPIHNRYKELLAKRAELQKKVEELQREISNRSTSSSERASSPAQCVTPVQTVV
notes: E. coli BL21-DE3
Turning to B1, in data set [4], the Km was found to be 62 ± 4 µM and the kcat is 348 ± 17 x 10^-3 s^-1.

B2: LMW-PTP (LMW-PTPB) (Homo sapiens) (protein)
chain: MAEQATKSVLFVCLGNICRSPIAEAVFRKLVTDQNISENWVIDSGAVSDWNVGRSPDPRAVSCLRNHGIHTAHKARQITKEDFATFDYILCMDESNLRDLNRKSNQVKTCKAKIELLGSYDPQKQLIIEDPYYGNDSDFETVYQQCVRCCRAFLEKAH
notes: N-terminal 6xHis tag (pNIC28a-Bsa4, TEV-cleavable; cleavage described only for crystallisation); E. coli BL21-DE3
For the molecule B2, in data set [5], the Km amounted to 307 ± 29 µM, the kcat is 0.000226 ± 1.9e-05 s⁻¹ and the kcat/Km amounted to 0.735 ± 0.054 M⁻¹ s⁻¹. In data set [6], the Km turned out to be 476 ± 30.2 µM, the kcat turned out to be 6.03 ± 0.106 s⁻¹ and the kcat/Km turned out to be 12700 ± 670 M⁻¹ s⁻¹.

The record behind these values is publication PMC7316235, “Computational and structure-guided design of phosphoinositide substrate specificity into the tyrosine specific LMW-PTP enzyme” (PLoS ONE, 2020).
